Binding result and Kd data for eight molecules are collected here from article PMC6662825, “The MTR4 helicase recruits nuclear adaptors of the human RNA exosome using distinct arch-interacting motifs” (Nature Communications, 2019).

B1: Trx-NVL^1–266 (domain or fragment, human, UniProt O15381 1-266, looked up)
chain: MKPRPAGFVDNKLKQRVIQYLTSNKCGKYVDIGVLASDLQRVYSIDYGRRKRNAFRIQVEKVFSIISSEKELKNLTELEDEHLAKRARQGEEDNEYTESYSDDDSSMEDYPDPQSANHMNSSLLSLYRKGNPDSVSNTPEMEQRETTSSTPRISSKTGSIPLKTPAKDSEGGWFIDKTPSVKKDSFFLDLSCEKSNPKKPITEIQDSKDSSLLESDMKRKGKLKNKGSKRKKEDLQEVDGEIEAVLQKKAKARGLEFQISNVKFED
notes: also called N-terminal region of human NVL tagged with thioredoxin; source: E. coli BL21 star (DE3), purified (Ni-NTA, SEC); not shown: 6xHis-Trx, N-terminal, kept

Holding throughout (conditions): both partners purified
For experiment [1], the target named is T1, GST-MTR4-∆N (human, UniProt P42285 75-1042).
T1 construct: Tag is cleavable with 3C protease; kept for the GST pull-downs; also called GST-tagged MTR4∆N; source: E. coli BL21 star (DE3), purified (Ni-NTA, heparin, SEC); not shown: 6xHis-GST, N-terminal, kept
T1 sequence (looked up): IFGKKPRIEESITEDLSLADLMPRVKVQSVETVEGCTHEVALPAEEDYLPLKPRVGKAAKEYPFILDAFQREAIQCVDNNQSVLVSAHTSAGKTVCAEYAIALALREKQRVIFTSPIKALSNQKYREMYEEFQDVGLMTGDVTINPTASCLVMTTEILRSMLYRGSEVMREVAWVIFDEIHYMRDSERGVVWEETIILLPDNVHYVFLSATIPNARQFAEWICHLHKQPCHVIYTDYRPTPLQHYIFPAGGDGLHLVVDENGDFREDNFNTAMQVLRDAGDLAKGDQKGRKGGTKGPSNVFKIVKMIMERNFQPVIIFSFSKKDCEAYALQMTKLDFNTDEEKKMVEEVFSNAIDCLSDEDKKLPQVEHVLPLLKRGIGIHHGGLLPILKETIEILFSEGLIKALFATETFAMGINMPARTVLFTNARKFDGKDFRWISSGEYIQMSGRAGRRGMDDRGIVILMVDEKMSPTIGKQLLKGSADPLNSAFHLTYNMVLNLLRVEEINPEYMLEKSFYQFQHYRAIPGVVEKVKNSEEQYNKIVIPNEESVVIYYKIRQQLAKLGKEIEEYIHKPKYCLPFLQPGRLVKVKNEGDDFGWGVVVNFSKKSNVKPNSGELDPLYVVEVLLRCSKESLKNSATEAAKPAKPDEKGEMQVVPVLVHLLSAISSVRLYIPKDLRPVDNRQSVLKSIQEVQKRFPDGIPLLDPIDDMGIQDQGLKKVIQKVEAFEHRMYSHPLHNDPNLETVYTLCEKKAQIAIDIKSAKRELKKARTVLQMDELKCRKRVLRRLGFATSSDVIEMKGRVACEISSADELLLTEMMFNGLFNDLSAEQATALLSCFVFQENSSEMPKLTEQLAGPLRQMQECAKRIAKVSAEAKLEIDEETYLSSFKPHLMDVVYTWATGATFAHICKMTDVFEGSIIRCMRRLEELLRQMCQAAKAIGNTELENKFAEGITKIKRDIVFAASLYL
Kind of experiment: pull-down; GST-tagged MTR4 constructs as bait, Trx-NVL constructs as prey, glutathione sepharose; 10 μM GST-MTR4∆N with 20 μM Trx-NVL constructs; 50 mM Hepes pH 7.5, 150 mM NaCl, 5% glycerol, 0.05% NP40, 1 mM DTT, 30 min at 4 °C; SDS-PAGE, Coomassie.

For experiment [2], the target named is B1. The experiment is described as above.
Experiment [3] addresses T2, MTR4-KOW (human, UniProt P42285 645-787).
T2 construct: human MTR4 KOW domain, residues 645–787; Named without GST in MST, NMR and ITC; the methods say the His-GST tag was cleaved with 3C protease 'when appropriate', so it was probably removed; Isotope-labelled for NMR; also called unlabeled MTR4 KOW; 15N-labelled MTR4-KOW; source: E. coli BL21 star (DE3), purified (Ni-NTA, heparin, SEC); minimal medium with 15N/13C for NMR
T2 sequence (looked up): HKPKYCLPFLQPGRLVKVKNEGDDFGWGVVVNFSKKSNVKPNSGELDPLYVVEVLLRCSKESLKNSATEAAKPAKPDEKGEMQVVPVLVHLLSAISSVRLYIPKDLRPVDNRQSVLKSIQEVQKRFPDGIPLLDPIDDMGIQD
Description: MST; 1 μM MBP-ZCCHC8^91–211-(GS)3-eYFP with a 1:1 dilution series of unlabeled MTR4-KOW; 50 mM Hepes/NaOH pH 7.5, 150 mM NaCl, 5% glycerol, 0.5 mM TCEP; MST power 70%, LED power 15%; triplicates.

Experiment [4] concerns the target T3, GST-MTR4∆N R743E (human, UniProt P42285 75-1042, R743E).
T3 construct: also called R743E mutant; source: E. coli BL21 star (DE3), purified (Ni-NTA, heparin, SEC); not shown: 6xHis-GST, N-terminal, kept
T3 sequence (looked up): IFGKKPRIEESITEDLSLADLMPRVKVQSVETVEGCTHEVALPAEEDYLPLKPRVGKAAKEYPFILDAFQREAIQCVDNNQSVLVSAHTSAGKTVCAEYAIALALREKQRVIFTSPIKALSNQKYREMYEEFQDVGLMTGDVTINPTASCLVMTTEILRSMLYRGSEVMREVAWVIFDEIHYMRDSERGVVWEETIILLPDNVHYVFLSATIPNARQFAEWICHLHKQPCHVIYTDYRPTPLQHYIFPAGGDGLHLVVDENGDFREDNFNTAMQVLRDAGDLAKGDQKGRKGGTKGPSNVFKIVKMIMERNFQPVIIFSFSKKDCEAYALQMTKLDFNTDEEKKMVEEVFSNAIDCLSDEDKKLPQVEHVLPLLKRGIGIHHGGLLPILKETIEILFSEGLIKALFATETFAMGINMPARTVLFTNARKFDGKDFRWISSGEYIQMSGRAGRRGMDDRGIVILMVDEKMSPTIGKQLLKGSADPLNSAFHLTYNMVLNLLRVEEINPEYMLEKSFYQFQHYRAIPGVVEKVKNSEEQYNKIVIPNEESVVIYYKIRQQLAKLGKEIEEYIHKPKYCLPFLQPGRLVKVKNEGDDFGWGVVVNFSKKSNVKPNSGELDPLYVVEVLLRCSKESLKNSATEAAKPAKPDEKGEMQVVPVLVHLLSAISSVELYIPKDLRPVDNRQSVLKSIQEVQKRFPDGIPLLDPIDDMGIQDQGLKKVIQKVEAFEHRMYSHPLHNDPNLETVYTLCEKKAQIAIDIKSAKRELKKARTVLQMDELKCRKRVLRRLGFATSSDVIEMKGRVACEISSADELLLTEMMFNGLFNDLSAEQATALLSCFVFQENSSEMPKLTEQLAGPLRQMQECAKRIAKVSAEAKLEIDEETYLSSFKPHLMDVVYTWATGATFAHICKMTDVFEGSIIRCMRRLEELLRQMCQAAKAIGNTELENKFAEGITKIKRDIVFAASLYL
Kind of experiment: pull-down; GST-tagged MTR4 constructs as bait, MBP-ZCCHC8 constructs as prey, glutathione sepharose; 2 μM GST-MTR4∆N with 8 μM MBP-ZCCHC8 constructs; 50 mM Hepes pH 7.5, 150 mM NaCl, 5% glycerol, 0.05% NP40, 1 mM DTT, 30 min at 4 °C; SDS-PAGE, Coomassie.

Experiment [5] has as its target T1, GST-MTR4-∆N. The description is as above.

Take B1: the binding result in experiment [1] is recorded as “binds”.

B2: GST-MTR4-KOW (domain or fragment, human, UniProt P42285 645-787, looked up)
chain: HKPKYCLPFLQPGRLVKVKNEGDDFGWGVVVNFSKKSNVKPNSGELDPLYVVEVLLRCSKESLKNSATEAAKPAKPDEKGEMQVVPVLVHLLSAISSVRLYIPKDLRPVDNRQSVLKSIQEVQKRFPDGIPLLDPIDDMGIQD
notes: human MTR4 KOW domain, residues 645–787; also called GST-tagged MTR4 KOW; source: E. coli BL21 star (DE3), purified (Ni-NTA, heparin, SEC); not shown: 6xHis-GST, N-terminal, kept
Regarding B2, the binding result in experiment [2] was “binds”.

B3: NVL^167–216 D176A (domain or fragment, human, UniProt O15381 167-216, looked up)
chain: KDSEGGWFIAKTPSVKKDSFFLDLSCEKSNPKKPITEIQDSKDSSLLESD
notes: The methods give Trx-NVL constructs for the NVL pull-downs, so the Trx tag was probably kept; also called D176A mutant; source: E. coli BL21 star (DE3), purified (Ni-NTA, SEC)
In the case of B3, the binding result in experiment [1] is reported as “binds”.

B4: Trx-NVL^167–216 F186A D189R (domain or fragment, human, UniProt O15381 167-216, looked up)
chain: KDSEGGWFIDKTPSVKKDSAFLRLSCEKSNPKKPITEIQDSKDSSLLESD
notes: also called F186A and D189R mutations in the Nop53-like stretch; source: E. coli BL21 star (DE3), purified (Ni-NTA, SEC); not shown: 6xHis-Trx, N-terminal, kept
On to B4, for which the binding result in experiment [1] is on record as “binds”.

B5: MBP-ZCCHC8^91–211-(GS)3-eYFP (domain or fragment, human, UniProt Q6NZY4 91-211, looked up)
chain: DGPILQILFMNNAISKQYHQEIEEFVSNLVKRFEEQQKNDVEKTSFNLLPQPSSIVLEEDHKVEESCAIKNNKEAFSVVGSVLYFTNFCLDKLGQPLLNENPQLSEGWEIPKYHQVFSHIV
notes: also called ZCCHC8-YFP fusion protein; source: E. coli BL21 star (DE3), purified (Ni-NTA, SEC); not shown: 6xHis-MBP, N-terminal, kept; (GS)3-eYFP, C-terminal, kept
As to B5, in experiment [3], the Kd (as a rule, the free concentration of one partner at which half of the binding sites on the other are occupied at equilibrium, for simple one-to-one binding) was approximately 300 nM.

B6: MBP-ZCCHC8^91–211 (domain or fragment, human, UniProt Q6NZY4 91-211, looked up)
chain: DGPILQILFMNNAISKQYHQEIEEFVSNLVKRFEEQQKNDVEKTSFNLLPQPSSIVLEEDHKVEESCAIKNNKEAFSVVGSVLYFTNFCLDKLGQPLLNENPQLSEGWEIPKYHQVFSHIV
notes: source: E. coli BL21 star (DE3), purified (Ni-NTA, SEC); not shown: 6xHis-MBP, N-terminal, kept
B6: the binding result in experiment [4] is “binds”.

B7: MBP-ZCCHC8^91–211 W198A/K202E (domain or fragment, human, UniProt Q6NZY4 91-211, looked up)
chain: DGPILQILFMNNAISKQYHQEIEEFVSNLVKRFEEQQKNDVEKTSFNLLPQPSSIVLEEDHKVEESCAIKNNKEAFSVVGSVLYFTNFCLDKLGQPLLNENPQLSEGAEIPEYHQVFSHIV
notes: also called W198A/K202E mutant; source: E. coli BL21 star (DE3), purified (Ni-NTA, SEC); not shown: 6xHis-MBP, N-terminal, kept
With B7, in experiment [5], the binding result was “binds”.

B8: MBP-ZCCHC8^91–211 F178A/D181R (domain or fragment, human, UniProt Q6NZY4 91-211, looked up)
chain: DGPILQILFMNNAISKQYHQEIEEFVSNLVKRFEEQQKNDVEKTSFNLLPQPSSIVLEEDHKVEESCAIKNNKEAFSVVGSVLYFTNACLRKLGQPLLNENPQLSEGWEIPKYHQVFSHIV
notes: also called F178A/D181R mutant; source: E. coli BL21 star (DE3), purified (Ni-NTA, SEC); not shown: 6xHis-MBP, N-terminal, kept
Take B8: the binding result in experiment [5] was “binds”.
